Test results from publication doi:10.1101/2025.03.28.645892 (2025).
Values belong to the binder of their own block, whether it stands above or below them.

What was measured:
[1] = biological target: T1, Arabidopsis thaliana UFD1B (Arabidopsis thaliana, UniProt Q9SJV0 1-340); test: MST; pH 7.5; AMPPNP
T1 chain: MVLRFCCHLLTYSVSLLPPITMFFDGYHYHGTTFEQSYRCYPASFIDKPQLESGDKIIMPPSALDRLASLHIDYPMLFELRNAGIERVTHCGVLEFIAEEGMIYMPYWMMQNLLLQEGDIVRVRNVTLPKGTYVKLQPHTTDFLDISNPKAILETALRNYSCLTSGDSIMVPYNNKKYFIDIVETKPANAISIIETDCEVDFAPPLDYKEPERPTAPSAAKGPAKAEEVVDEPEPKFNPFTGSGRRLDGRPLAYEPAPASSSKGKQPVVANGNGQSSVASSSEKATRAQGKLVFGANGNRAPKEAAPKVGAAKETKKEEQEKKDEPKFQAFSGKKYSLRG

[2] = biological target: T1, Arabidopsis thaliana UFD1B; test: MST; pH 6.5; AMPPNP
[3] = biological target: T1, Arabidopsis thaliana UFD1B; test: ITC; AMPPNP; AtCDC48A saturated with AtNPL4
[4] = biological target: T2, AtNPL4B F105A (Arabidopsis thaliana, UniProt Q9LYC2 1-413, F105A); test: ITC; AMPPNP
T2 sequence: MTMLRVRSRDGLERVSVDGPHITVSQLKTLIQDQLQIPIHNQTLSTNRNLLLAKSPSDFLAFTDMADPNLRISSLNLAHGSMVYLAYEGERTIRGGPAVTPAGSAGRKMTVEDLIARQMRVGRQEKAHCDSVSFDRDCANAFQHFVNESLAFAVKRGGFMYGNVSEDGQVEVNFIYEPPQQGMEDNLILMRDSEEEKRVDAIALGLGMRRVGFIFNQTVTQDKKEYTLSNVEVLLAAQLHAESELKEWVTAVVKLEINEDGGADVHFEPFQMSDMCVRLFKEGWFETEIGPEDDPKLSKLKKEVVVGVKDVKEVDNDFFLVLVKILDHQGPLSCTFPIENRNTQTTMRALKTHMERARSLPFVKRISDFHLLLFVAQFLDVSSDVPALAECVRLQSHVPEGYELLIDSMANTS

[5] = biological target: T3, AtNPL4B UBXL domain (Arabidopsis thaliana, UniProt Q9LYC2 1-89); test: ITC; AMPPNP
T3 chain: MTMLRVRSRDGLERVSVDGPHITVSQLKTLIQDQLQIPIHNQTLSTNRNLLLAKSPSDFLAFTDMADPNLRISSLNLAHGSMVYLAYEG

[6] = biological target: T1, Arabidopsis thaliana UFD1B; test: MST; pH 6.5
[7] = biological target: T1, Arabidopsis thaliana UFD1B; test: MST; pH 7.5

Kd [1]: 4.6 µM | Kd [2]: 2.9 µM | Kd [3]: 3.8 µM
B1: AtCDC48A saturated with AtNPL4 (complex)
chain 1: MSTPAESSDSKSKKDFSTAILERKKSPNRLVVDEAINDDNSVVSLHPATMEKLQLFRGDTILIKGKKRKDTVCIALADETCEEPKIRMNKVVRSNLRVRLGDVISVHQCPDVKYGKRVHILPVDDTVEGVTGNLFDAYLKPYFLEAYRPVRKGDLFLVRGGMRSVEFKVIETDPAEYCVVAPDTEIFCEGEPVKREDEERLDDVGYDDVGGVRKQMAQIRELVELPLRHPQLFKSIGVKPPKGILLYGPPGSGKTLIARAVANETGAFFFCINGPEIMSKLAGESESNLRKAFEEAEKNAPSIIFIDEIDSIAPKREKTNGEVERRIVSQLLTLMDGLKSRAHVIVMGATNRPNSIDPALRRFGRFDREIDIGVPDEIGRLEVLRIHTKNMKLAEDVDLERISKDTHGYVGADLAALCTEAALQCIREKMDVIDLEDDSIDAEILNSMAVTNEHFHTALGNSNPSALRETVVEVPNVSWNDIGGLENVKRELQETVQYPVEHPEKFEKFGMSPSKGVLFYGPPGCGKTLLAKAIANECQANFISVKGPELLTMWFGESEANVREIFDKARQSAPCVLFFDELDSIATQRGGGSGGDGGGAADRVLNQLLTEMDGMNAKKTVFIIGATNRPDIIDSALLRPGRLDQLIYIPLPDEDSRLNIFKAALRKSPIAKDVDIGALAKYTQGFSGADITEICQRACKYAIRENIEKDIEKEKRRSENPEAMEEDGVDEVSEIKAAHFEESMKYARRSVSDADIRKYQAFAQTLQQSRGFGSEFRFENSAGSGATTGVADPFATSAAAAGDDDDLYN
chain 2: MMMLRIRSRDGLERVTAEGAHITVSQLKTLIADQLQIPLHKQTLSTNRDLLLAKTPADLLAFTDLTDPNLPLSSLNLGHGSMLYLAYDGERSIPGAPPVTPAGSFGRKMTVDDLIARQMRVTRQETSHCDSVSFDRDAANAFQHYVNESLAFAVKRGGFMYGTVTEEGQVEVDFIYEPPQQGTEANLILMRDADEEKRVDAIAMGLGMRRVGFIFNQTVVQDKTEYTLSNAEVLQAAELHAESELKEWVTAVVKLEVNEDGGADVHFEAFQMSDMCIRLFKEEWFETEIMPDDDPKLSKMKKEVVVGVKDLKEVDNDFFLVLVRILDHQGPLSSTFPIENRSSRATMRALKTHLDRAKSLPLVKKMSDFHLLLFVAQFLDVSSDVPALAECVRLQSPVPEGYALLIESMANTC
modifications: Alexa-488 dye label in the MST experiments only

Kd [4]: 4.6 µM | Kd [5]: 3.2 µM
B2: Arabidopsis thaliana CDC48A (enzyme)
chain: B1 chain 1

Kd [6]: 75.4 µM | Kd [7]: 256 µM
B3: Arabidopsis thaliana NPL4 (natural protein)
chain: B1 chain 2
modifications: Alexa-488 dye label in the MST experiments only
